Results as given in the DeepSol protein solubility set.

test: soluble on expression in E. coli; label from the status in PepcDB or PDB records

Sequence | soluble on expression in E. coli
MGHHHHHHGGHMSLIISSLTNPNFKVGLPKVIAEVCDYLNTLDLNALENGRHDINDQIYMNVMEPETAEPSSKKAELHHEYLDVQVLIRGTENIEVGATYPNLSKYEDYNEADDYQLCADIDDKFTVTMKPKMFAVFYPYEPHKPCCVVNGKTEKIKKLVVKVPVKLIEGGS | soluble
MAEDSNSSESIIVNVTGDDNKSALFGKYDLGKLLGSGAFAKVYQAEDLQNGGESVAIKVVQKKRLKDGLTAHVKREISVMRRLRHPHIVLLSEVLATKTKIYFVMELAKGGELFSRVTSNRFTESLSRKYFRQLISAVRYCHARGVFHRDLKPENLLLDENRDLKVSDFGLSAMKEQIHPDGMLHTLCGTPAYVAPELLLKKGYDGSKADIWSCGVVLFLLNAGYLPFRDPNIMGLYRKIHKAQYKLPDWTSSDLRKLLRRLLEPNPELRITVEEILKDPWFNHGVDPSEIIGIQADDYDLEENGKILNAFDLISSASSSNLSGLFGNFVTPDHCDQFVSDESTAVIMRKVEEVAKQLNLRIAKKKERAIKLEGPHGVANVVVKVRRLTNELVMVEMKNKQRDVGLVWADALRQKLRRLINQPVYKVPDKP | not soluble
MSFQVSVAVNDGPFQKKSVTPNTTIGDLNNDAILIWKDTAIVYDISDESKNFGPTVTLEQLGVTQISMVYIYTTAFPCPSGDLRSIVPAQVRLISQFASAASSIFNGQSSSSAQSAQRTRRVEQDDEGEKSMFSRKLLDSPATFKALSENMFFRLKNEPHKLGYGLPELVERFLAKKDMTYKEFEQMFRSYVEEEVHKEEIIKNNPNSAEAKMFLEAKRNKELIDEQYLHSMTHHPEDMIAVTMLYINLTINGVPVKAFIDSGAQKSIMSMACAERCGLNGLIDRRFQSMARGVGGTEKIEGKIHLCDVKVEDAHFSCPFEVMARREMDLLIGLNVLRKHGCCINLKTSRLEFGNGTTTPFLQSNEIDSHLKEIMALPEEEMQFEDGST | not soluble
MTGLLDGKRILVSGIITDSSIAFHIARVAQEQGAQLVLTGFDRLRLIQRITDRLPAKAPLLELDVQNEEHLASLAGRVTEAIGAGNKLDGVVHSIGFMPQTGMGINPFFDAPYADVSKGIHISAYSYASMAKALLPIMNPGGSIVGMDFDPSRAMPAYNWMTVAKSALESVNRFVAREAGKYGVRSNLVAAGPIRTLAMSAIVGGALGEEAGAQIQLLEEGWDQRAPIGWNMKDATPVAKTVCALLSDWLPATTGDIIYADGGAHTQLL | soluble
MGSDKIHHHHHHMGTAKGNITNWTQYNQVLTQRGSLTFWMDDAAIKHWYNQHPSGRQGRSNTYSDSAISTALMIKGVFKLPLRALYGFINSLFRLMDVDLKSPDYSCISKRAKTVEVNYRLRSKGPARHILIDATGLKVFGEGEWKIRKHGKEKRRIWRKMHLAVDADTREIVSAVASLDNVHNSEVIPTLINPLRCKIKQVSADGAYDTKHCYAVLQRKGITAIIPSRKNAGYRRGEQPRNEAVDALKERSVSLVEA | not soluble
MGAGREVSVSLDGVRDKNLMQLKILNTVLFPVRYNDKYYADAIAAGEFTKLAYYNDICVGAIACRLEKKESGAMRVYIMTLGVLAPYRGIGIGSNLLNHVLDMCSKQNMCEIYLHVQTNNEDAIKFYKKFGFEITDTIQNYYINIEPRDCYVVSKSFAQSEANK | soluble
MGSDKIHHHHHHMSLTRLNIEAFRNIQSAQLIPAPGINLIYGQNGSGKTSILEAIYFLGMGRSFRSHLSQRVINNDDDKLTLFATLNLARGDSKIGLRRFRSGETEVRIDGEKVKRLSTLAETLPIQVITPESFSLLFEGPKSRRQFIDWGAFHADPQFYGAWTNVRRVLKQRNQLLRNGSAYSNIQFWDQEFVRYAEQVTEIRNHYVDSLNELLKGIIGEFLPSVDVKVSFTRGWDSKTDFAELLENQYSRDLATGHTVSGPHKADLRLRVGTLPAQDALSRGQLKLLVCALRIAQGKLLKQQIDKHSIYLVDDLPSELDAQHRQLLLKQLTDTGAQVFVTAIDPAAIVDSLHTPPSRMFHVEQGRVTVIE | not soluble
MSLVNIEFYESVAASEAKFINDTLIPQFEAEYPGIHVTFVNVGSEDVSKDILAMEASGHVGPIVAGQDNLEIGQLIYSSHGNVLMNLTAMSPALMPSSLIPAASNLVQYEQKVFGGIYFFPFRGNVPLVFYNKTALSDAGISSPPANYTQLLQDAMTIHSKTGKDPIMIQGASTNGGHTGSSTATEMYQMMVQFGGNPLYLNDTGDIHAVEMLYNLSAYFSPDFKTGYWGSYRGLAVGNYSILDYQWPYVYNILTASPYNMTNSTLGVYPGPAGPVNANHVLGGDVLFIPKGATNIPSLEAFIRFLLGAQAQRETLLNLSWVAINQNAYRNLPKSESVIFTALEQAIATGVFLRNPTPWITEWQVIFCNDVFNPLFVTHSKTYSDIPSLLSYAHSQMYSYIAANYGQANATLYNNPNAYAPISEGHHHHHH | not soluble
MGSDKIHHHHHHMMYIGLPQWQHPAWSRLGLNDLADYSRYFSCVEGNTTFYALPSREIVGRWRDMTHDNFRFCFKFPSTISHKAALQNCDSDVSLFYQCLEPIEHRIGQLWLQLPATFGPVLLPVLWRFLDALPQGFSYGVEVRHPLFFTKGDEERALNQGLQQRGINRVILKRHI | not soluble
MGSDKIHHHHHHAQQKVEILPFGNMDQWVTREIKESGIIGGNTKKVYAIGPTETIVGAKPYANKGGSPWGTSNVMARVSGITKTNTSVFPETRGDGFCARLDTRMESVKVLGIVDITVLAAGSMFLGTVHEPIKSTKNPNKMLQMGIPFTDRPSAIQFDYKVKMSDRENRIRATGFSKITDVPGKDFPAVILLLQKRWEDAKGNVYAKRIGTMVNYYYHSTDWKNGSKYDIMYGDITKDPAYKAHMMRLQASEYFTVNSKGESVPIHEVAWGEADDVPTHMILQFTSSHGGAYIGSPGNSLYIDNVKLIY | not soluble
GSKQVITEQIANDLVKEVVNSSVISIVKREFSEANYRKDFIDTMTRELYDAFLHERLYLIYMDSRAELKRNSTLKKKFFEKWQAS | soluble
MGSDKIHHHHHHMSKVVKFGGSSVANSEQFKKVKQIILADPDRKYVVTSACGKSGQEDHKVTDLLYLCAAHITYDVSYESIFQSIVDKYMEIKRSLGLKIDLAGEFAKIRQNMAQNLNLDYLVSRGEYLTGLCLAEYLDADFRDASQVIRFHYDGSIDLDKSQELLKAQVDPGRRVVIPGFYGSLPNGVIKVMSRGGSDITGSIVANAFDVDVYENWTDVSGFYVADPRIIKDPVQIPRVTYSELRQMSYMGANVLHDDAVFPVRQKNIPINVRNTNHPENPGTMIMNDCSELDAQERPHVITGITGKQDFTVITMVKSHVSAEAGFLRKVLAVFEKFQISIESVPVTVDTFSIVVQTKKIERYLYEIVAELQQDLHLDDIQVESQQAMLAVVGRAMRQMPGMSGKILSTLGDQQINIRTINQACDEQSIVIGVNNQDLVPAIKAIYQQFISEERVER | not soluble
MSTATKVGAVIITMGNRPDELRALLDSVAKQDGDRVEVVVVGNGSPVPDVPAGVRTVELPENLGIPGGRNVGIEAFGPGGTDVDILLFLDDDGLLAHHDTAELCRQAFTADPELGIISFRIADPDTGETQRRHVPRLRASDPMRSSRVTTFLGGANAVRTKVLAEVGGLPDEFFYAHEETDLAWRALDAGWMIDYRSDMVLYHPTTAPSRHAVYHRMVARNRVWLARRNLPAPLVPVYLGVWLLLTLARRPSGPALKAWFGGFKEGWTSPCGPRRPMKWRTVWRLTRLGRPPVILEHHHHHH | not soluble
MRGSHHHHHHTDPALRAIKVYGVPGWGSTISELMLTLADIPYQFVDVSGFDHEGASRELLKTLNPLCQVPTLALENDEIMTETAAIALMVLDRRPDLAPPVGRAERQLFQRLLVWLVANVYPTFTFADYPERWAPDAPEQLKKNVIEYRKSLYIWLNSQLTAEPYAFGEQLTLVDCYLCTMRTWGPGHEWFQDNATNISAIADAVCQLPKLQEVLKRNEIIGLCGR | soluble
